This is an account of results in patent publication US20260176374A1 (published 2026).

Some targets named below: 19429; 19113; 14949.
Experiment in all cases: BLI
On the technique in general: In BLI a coated tip is dipped into the sample, and binding shifts an interference pattern.

B1: hEPOR (receptor)
chain: APPPNLPDPKFESKAALLAARGPEELLCFTERLEDLVCFWEEAASAGVGPGNYSFSYQLEDEPWKLCRLHQAPTARGAVRFWCSLPTADTSSFVPLELRVTAASGAPRYHRVIHINEVVLLDAPVGLVARLADESGHVVLRWLPPPETPMTSHIRYEVDVSAGNGAGSVQRVEILEGRTECVLSNLRGRTRYTFAVRARMAEPSFGGFWSAWSEPVSLLTPSDLDP
The term Kd denotes the concentration at which binding is half-saturated. Lower therefore signals a tighter complex. For B1, the Kd in the assay with 19429 came out at 0.8 nM; with 19113, 2 nM; with 14949 it was 2 nM.
